Reference: patent publication US20150004155A1 (AIMM THERAPEUTICS B V, published 2015)

Tests used:
[1] = biological target: T1, purified recombinant RSV-Ga protein (Sino Biologics) (Respiratory Syncytial Virus subtype A, …, UniProt P03423 64-298); test: SPR (IBIS MX96), IgG captured on anti-human IgG, RSV Ga injected
T1 sequence: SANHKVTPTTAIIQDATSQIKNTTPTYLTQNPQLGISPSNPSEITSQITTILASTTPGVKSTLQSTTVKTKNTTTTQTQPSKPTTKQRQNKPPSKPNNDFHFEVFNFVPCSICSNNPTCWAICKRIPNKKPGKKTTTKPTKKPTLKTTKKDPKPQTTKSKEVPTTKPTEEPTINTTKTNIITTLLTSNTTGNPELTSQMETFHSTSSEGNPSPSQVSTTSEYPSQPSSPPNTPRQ

[2] = biological target: T2, purified recombinant RSV-Gb protein (Sino Biologics) (Respiratory Syncytial Virus subtype B, …, UniProt O36633 67-299); test: SPR (IBIS MX96), IgG captured on anti-human IgG, RSV Gb injected
T2 sequence: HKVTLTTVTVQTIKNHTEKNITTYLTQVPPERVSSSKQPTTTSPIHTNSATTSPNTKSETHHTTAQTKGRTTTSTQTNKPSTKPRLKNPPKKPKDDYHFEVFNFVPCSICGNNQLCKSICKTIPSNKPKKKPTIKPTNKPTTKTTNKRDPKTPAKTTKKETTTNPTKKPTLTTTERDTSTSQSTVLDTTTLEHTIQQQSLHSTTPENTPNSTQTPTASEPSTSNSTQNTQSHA

[3] = biological target: T3, RSV G protein of RSV A2 (native, on RSV A2 infected HEp2 cells / virus) (Respiratory Syncytial Virus subtype A, …, UniProt P03423 1-298); test: FACS, RSV infected cells, anti-huIgG-PE
T3 sequence: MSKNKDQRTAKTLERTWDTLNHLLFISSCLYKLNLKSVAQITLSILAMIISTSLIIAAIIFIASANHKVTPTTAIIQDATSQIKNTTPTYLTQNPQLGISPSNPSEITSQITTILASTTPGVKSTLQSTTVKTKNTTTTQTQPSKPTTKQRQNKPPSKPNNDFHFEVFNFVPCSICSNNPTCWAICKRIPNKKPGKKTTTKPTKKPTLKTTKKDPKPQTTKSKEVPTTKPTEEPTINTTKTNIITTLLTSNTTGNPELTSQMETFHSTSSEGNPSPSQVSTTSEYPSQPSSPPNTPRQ

[4] = biological target: T2, purified recombinant RSV-Gb protein …; test: SPR (IBIS MX96), IgG captured on anti-human IgG
[5] = biological target: T4, RSV G protein in denatured and boiled supernatant of RSV A2 infected HEp2 cells (western blot) (Respiratory Syncytial Virus subtype A, …, UniProt P03423 66-298); test: western blot, denatured RSV A2 supernatant
T4 sequence: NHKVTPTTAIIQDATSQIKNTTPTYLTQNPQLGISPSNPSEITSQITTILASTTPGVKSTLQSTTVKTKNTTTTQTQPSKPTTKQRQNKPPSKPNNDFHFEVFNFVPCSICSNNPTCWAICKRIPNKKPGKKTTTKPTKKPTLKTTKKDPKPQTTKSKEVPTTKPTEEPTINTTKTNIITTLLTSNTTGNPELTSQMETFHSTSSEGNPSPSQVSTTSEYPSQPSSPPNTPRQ

B1: AT49 (antibody, V domains shown)
VH: QVLLVQSGAEIKKPGSSVKISCKASGGTFSSLALNWVRQAPGQGLQWMGGIIPLFGTQNYAQKFQGRVTITADESTSTAYMELSGLRPEDTAVYYCALFLWFGDQTSDDGFDVWGQGTVVTVSS
VL: DIVMTQSPLSLTVTPGEPASISCRSSQSLLHGNGYKYLHWYLQKPGQSPQLLIYLGSNRASGVPARFSGSGSDTDFTLKISTVETEDVGVYYCMQALQSPTFGQGTKVEIKR
[1]
  Kd: 0.1 nM
  koff: 3e-05 s⁻¹
  kon: 220000 M⁻¹ s⁻¹
[2]
  Kd: 0.5 nM
  koff: 5e-05 s⁻¹
  kon: 120000 M⁻¹ s⁻¹

B2: AT34 (antibody, V domains shown)
VH: QVQLMESGGGVVQPGKSLRLSCAASGFTFSHYGMHWVRQAPGKGLEWVAVISYDGDKKYYADSVKGRFTISRDNSKNTLHLHMNSLRHEDTAVYFCASQGAKGGHELSFYCALDVWGQGTTVAVSS
VL: DIQMTQSPSTLSASVGDRVTITCRASQGIGSWLAWYQQKPGKAPKLLIYNASGLESGVPSGFSGSGSGTEFTLTISSLQPDDSATYYCQQYNSHTWTFGQGTKVEFKR
[3]
  binding result: binds

B3: AT32 (antibody, V domains shown)
VH: QVQLVQSGAEMKKPGASVKVSCQVAGYTLTELSIHWVRQTPGNGLEWMGGFEPEDGEYIYPQKSQGRVTMTEDTSTGTAYMELRSLRSDDTAVYYCAAEARYCDNSRCSPNFDHWGQGTLVAVSS
VL: DIVMTQSPDSLAVSLGERATFSCKSSQSVLYDSNNKNYLAWYQQRPGQPPKLLIYWASTRESGVPDRFSGSGSGTDFTLTISSLQPEDVAVYYCQQYYDPLITFGQGTRLEIKR
[1]
  Kd: 0.6 nM
  koff: 0.00043 s⁻¹
  kon: 750000 M⁻¹ s⁻¹

B4: AT36 (antibody, V domains shown)
VH: QVQVVQSGAEVKKPGASVKVSCKTSGYNFIDHSVSWVRQAPGQGLEWMGWISPYNHRTVYAEKFQGRVTMTTDTSTRTVSMELRRLTSDDTAVYFCARDRVQQGEGNFFDHWGQGTPVTVTS
VL: DIVMTQSPDSLAVSLGERATINCKSSQSLLHSSNNKIYLAWYQQKPGQPPKLLLYWASTRESGVPDRFTGSGSGTDFTLTINSLQAEDVAVYYCQQYYTTHPTFGQGTRLEIKR
[3]
  binding result: binds

B5: AT46 (antibody, V domains shown)
VH: EVQLVESGGGLVQPGGSLRLSCAASGFTFSRYVMSWVRQAPGRGLEWVSSITGSGATTYYADSVKGRFTISRDNSKNTVYLQMNRLRAEDTAIYYCANCGRAGQIFDDWGQGTLVTVSS
VL: QPVLTQSPSASASLGASVKLTCTLSSGHRNYAIAWHQQRPEKGPRYLMKIYTNGSHYPGDGTPDRFSGSSSGAERYLTISSLQSEDEADYYCQTWGAGIWVFGGGTKLTVLG
[4]
  binding result: no binding

B6: AT40 (antibody, V domains shown)
VH: QVQLVESGGGVVQPGMSHRLSCAASTLIFDRHALHWVRQAPGAGLEWVAILSYDGTTDYYADSVKGRFTVSRDTSKNTVFLQMNGLRPQDTAVYYCARGRALDDFADYGGYYFDYWGQGILVTVSS
VL: DIQMTQSPSSVSASVGDKVTITCRASQGISTWLAWYQQKPGKAPALLIYSASRLQSGVPSRFSGSGSGTDFTLTISSLQPEDYATYYCQQANTFPFTFGPGTKVDIKR
[1]
  Kd: 0.2 nM
  koff: 6e-05 s⁻¹
  kon: 350000 M⁻¹ s⁻¹
[2]
  Kd: 0.1 nM
  koff: 3e-05 s⁻¹
  kon: 340000 M⁻¹ s⁻¹

B7: AT42 (antibody, V domains shown)
VH: QVQLQESGPGLVQPSETLSLTCTVSGDSITSNVYYWGWIRQPPGKGLEWIGSIFHSGITHYTPSLNSRVTISVDTSKNQFSLRLSSATAADTAVYYCARHWAGLYFDSWGQGALVAVSS
VL: EIVLTQSPGTLSLSPGERATLSCRASQTVSSSHLAWYQQKPGQAPRLLIHGSSSRATGIPERFSGSGSGPDFTLTISRLKPEDFAVYYCQYYGDSPGSFGEGTKVEIKR
[5]
  binding result: no binding
[1]
  Kd: 1.3 nM
  koff: 0.00076 s⁻¹
  kon: 640000 M⁻¹ s⁻¹
[2]
  Kd: 0.3 nM
  koff: 0.0001 s⁻¹
  kon: 400000 M⁻¹ s⁻¹

B8: AT44 (antibody, V domains shown)
VH: QVQLQASGPGLVKPSETLSLTCNVSGYSVSSGHYWAWVRQSPGKGLEWIGGIHHSGSTYTNPPLKSRVSISIDTSKNQFSLRLTSVTAADTAVYFCARDLYDLSTGPFWFDPWGQGTLVTVSS
VL: EIVMTQSPATLSVSPGERVTLSCRASQSVSTKVVWYQQKFGQAPRLLIYGASTRATGIPVRFSGSGSGTEFTLTISSLQSEDLAVYFCQQYNKWPMYTFGQGTKLEIKR
[1]
  Kd: 0.1 nM
  koff: 3e-05 s⁻¹
  kon: 350000 M⁻¹ s⁻¹
[2]
  Kd: 0.1 nM
  koff: 4e-05 s⁻¹
  kon: 340000 M⁻¹ s⁻¹
